Laboratory results as given in patent US7871610B2, “Antibodies to Tie1 ectodomain” (Dyax Corp., priority 2003, dated 2011).
Residue numbers refer to the chain shown, from its start. “Also recorded” adds a separate entry of the source. Blank lines part the entries; values can stand above or below the molecule they belong to.

How the values were obtained:
[1] = biological target: T1, Tie1-EpoR chimeric receptor (UniProt P14753+P35590); assay: Ba/F3 bioassay (Tie1/EpoR chimeric BaF3 cell assay), MTT viability; assay type: cell-based, human; conditions: 100 ng/ml E3 IgG together with 100 (1:1) or 500 (1:5) ng/ml of the other antibody
T1 construct: the PCR amplified extracellular part of human Tie1 (bp 37-2316 of X60975); expressed in transfected cells
T1 sequence (P35590+P14753 with tags, fused parts or gaps): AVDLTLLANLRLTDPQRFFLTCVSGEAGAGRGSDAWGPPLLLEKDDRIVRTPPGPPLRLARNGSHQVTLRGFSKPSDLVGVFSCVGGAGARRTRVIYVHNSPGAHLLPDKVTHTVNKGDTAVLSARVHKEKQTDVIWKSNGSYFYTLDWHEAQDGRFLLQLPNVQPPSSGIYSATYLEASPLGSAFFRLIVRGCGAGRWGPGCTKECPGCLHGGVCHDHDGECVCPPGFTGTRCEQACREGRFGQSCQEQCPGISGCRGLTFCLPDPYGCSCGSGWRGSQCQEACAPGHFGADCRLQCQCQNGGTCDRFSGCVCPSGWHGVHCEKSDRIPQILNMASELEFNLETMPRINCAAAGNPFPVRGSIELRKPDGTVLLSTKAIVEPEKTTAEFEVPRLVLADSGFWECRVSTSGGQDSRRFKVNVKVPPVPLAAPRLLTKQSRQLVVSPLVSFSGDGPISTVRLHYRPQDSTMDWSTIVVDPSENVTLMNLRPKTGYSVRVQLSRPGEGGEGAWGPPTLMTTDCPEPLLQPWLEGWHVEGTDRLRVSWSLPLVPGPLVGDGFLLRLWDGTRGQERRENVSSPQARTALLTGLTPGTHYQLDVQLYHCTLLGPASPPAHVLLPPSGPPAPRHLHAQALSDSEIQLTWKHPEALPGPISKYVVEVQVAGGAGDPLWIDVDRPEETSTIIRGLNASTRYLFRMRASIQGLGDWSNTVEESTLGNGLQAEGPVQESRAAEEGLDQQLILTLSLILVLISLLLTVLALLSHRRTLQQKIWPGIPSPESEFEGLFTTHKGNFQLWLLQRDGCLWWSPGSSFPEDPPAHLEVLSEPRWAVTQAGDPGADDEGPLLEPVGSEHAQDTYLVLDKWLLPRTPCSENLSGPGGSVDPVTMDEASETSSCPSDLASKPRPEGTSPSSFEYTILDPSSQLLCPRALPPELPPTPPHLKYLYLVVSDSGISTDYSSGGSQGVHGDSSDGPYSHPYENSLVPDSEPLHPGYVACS
From the text: To generate Tie1-EpoR expressing Ba/F3 cells for the bioassay, Ba/F3 pre-B cells were stably transfected with a nucleic acid that expresses chimeric receptor containing the extracellular domain of human Tie1 fused with the transmembrane and cytoplasmic domains of the mouse erythropoietin receptor. The nucleic acid used was a Tie1-EpoR chimeric cDNA in a pEF-BOS expression vector. The nucleic acid encoding the chimeric receptor was constructed by cloning the PCR amplified extracellular part of human Tie1 (bp 37-2316 of X60975) as EcoRI-BglII fragment into mEpoR-pcDNA vector. The cDNA encoding for the chimeric receptor consisting of the extracellular part of Tie1 fused with the transmembrane and intracellular domains of EpoR was subcloned into the pEF-BOS expression vector. Vector was linearized and co-transfected into Ba/F3 cells with pcDNA3.1(+) Zeo vector (Invitrogen). Stable cell pools were generated by selection with 250 μg/ml Zeocin. The expression of Tie1/EpoR fusion protein in several clones was analyzed by Western blotting with an antibody against EpoR.
To perform the assays, Ba/F3 cells expressing the Tie 1-EpoR chimera were split in 96-well microtiter plates at 50 000 cells/well in the presence of the indicated concentrations of anti-Tie1 antibodies. As controls, Zeocin resistant pools not expressing the Tie1-EpoR were used. After 48 h, the viability of the cells was determined by adding MTT (3-(4,5-dimethylthiazol-2-yl)-2,5-diphenyl tetrazolium bromide (Sigma), 0.5 mg/ml), followed by further 2 h of culture, addition of an equal volume of cell lysis solution (10% SDS, 10 mM HCl) and incubation overnight at 37° C. Absorbance was measured at 540 nm.
Although no ligand for Tie1 has been identified, we used the following efficient screening method for Tie1-binding proteins. Interleukin-3 dependent pre-B-lymphocyte (Ba/F3) cells were transfected with a construct that expresses a Tie1-EpoR fusion protein. Since Ba/F3 cells are IL-3 dependent, they die unless IL-3 is provided. However, Tie-EpoR receptor expressing Ba/F3 cells can survive and proliferate if the medium contains a Tie1-binding protein, either a natural ligand or an artificial mimetic. Cell survival can be quantitated, e.g., by colorimetric MTT-assay, which measures mitochondrial activity.

[2] = biological target: Tie1 (Homo sapiens, UniProt P35590); assay: Immunohistochemistry of matched human tumor and normal tissue sections; parameters: from tissue; host or cells: fresh frozen normal and tumor tissue (e.g. lung, kidney, skin, breast); conditions: fresh frozen tissue
Experimental: The Tie-1 antibodies were biotinylated using the EZ-link Sulfo-NHS-SS-Biotin (Pierce, Cat. 21331). For Tie-1/Fc and Tie-1-His, the reaction was performed for 2 hours on ice in 50 mM sodium carbonate buffer, pH 9.6, in the presence of a 5-fold molar excess of biotinylating agent. For the antibodies, the reaction was performed for 2 hours on ice in PBS, in the presence of a 15-fold molar excess of EZ-link Sulfo-NHS-SS-Biotin. The reaction was stopped by the addition of Tris-HCl, pH 7.5 (50 mM final concentration) followed by a 1-hour incubation on ice. Samples were then dialyzed against PBS.
Various normal and tumor tissue sections were stained with biotinylated antibodies. A mouse monoclonal anti-Tie1 antibody (7e8) (Alitalo laboratory, University of Helsinki) was used as a positive control. Sections without primary antibody served as negative control. All samples were fresh frozen tissues and staining was performed with the TSA-kit (Perkin-Elmer Life Sciences). After acetone fixation (10-20 min, −20° C.) the slides were treated with 0.73% H2O2 for 10 min to reduce endogenous peroxidase activity followed by blocking for 30 min with TNB buffer. Sections ([…] thick) were incubated with primary antibodies (10 μg/ml) overnight at 4° C. Sections with the mouse monoclonal anti-tie1 antibody (7e8) were treated with biotinylated anti-mouse antibodies (VectaStain) before the addition of streptavidin-HRP. Signal was amplified by using a TSA kit and the visualized by AEC (235 ml NaAc, 15 ml AEC (stock solution: 1600 mg 3-amino-9-ethyl-carbazole and 480 ml N-dimethylformamide), 250 μl H2O2).

Sequence of Tie1 (P35590 22-1138): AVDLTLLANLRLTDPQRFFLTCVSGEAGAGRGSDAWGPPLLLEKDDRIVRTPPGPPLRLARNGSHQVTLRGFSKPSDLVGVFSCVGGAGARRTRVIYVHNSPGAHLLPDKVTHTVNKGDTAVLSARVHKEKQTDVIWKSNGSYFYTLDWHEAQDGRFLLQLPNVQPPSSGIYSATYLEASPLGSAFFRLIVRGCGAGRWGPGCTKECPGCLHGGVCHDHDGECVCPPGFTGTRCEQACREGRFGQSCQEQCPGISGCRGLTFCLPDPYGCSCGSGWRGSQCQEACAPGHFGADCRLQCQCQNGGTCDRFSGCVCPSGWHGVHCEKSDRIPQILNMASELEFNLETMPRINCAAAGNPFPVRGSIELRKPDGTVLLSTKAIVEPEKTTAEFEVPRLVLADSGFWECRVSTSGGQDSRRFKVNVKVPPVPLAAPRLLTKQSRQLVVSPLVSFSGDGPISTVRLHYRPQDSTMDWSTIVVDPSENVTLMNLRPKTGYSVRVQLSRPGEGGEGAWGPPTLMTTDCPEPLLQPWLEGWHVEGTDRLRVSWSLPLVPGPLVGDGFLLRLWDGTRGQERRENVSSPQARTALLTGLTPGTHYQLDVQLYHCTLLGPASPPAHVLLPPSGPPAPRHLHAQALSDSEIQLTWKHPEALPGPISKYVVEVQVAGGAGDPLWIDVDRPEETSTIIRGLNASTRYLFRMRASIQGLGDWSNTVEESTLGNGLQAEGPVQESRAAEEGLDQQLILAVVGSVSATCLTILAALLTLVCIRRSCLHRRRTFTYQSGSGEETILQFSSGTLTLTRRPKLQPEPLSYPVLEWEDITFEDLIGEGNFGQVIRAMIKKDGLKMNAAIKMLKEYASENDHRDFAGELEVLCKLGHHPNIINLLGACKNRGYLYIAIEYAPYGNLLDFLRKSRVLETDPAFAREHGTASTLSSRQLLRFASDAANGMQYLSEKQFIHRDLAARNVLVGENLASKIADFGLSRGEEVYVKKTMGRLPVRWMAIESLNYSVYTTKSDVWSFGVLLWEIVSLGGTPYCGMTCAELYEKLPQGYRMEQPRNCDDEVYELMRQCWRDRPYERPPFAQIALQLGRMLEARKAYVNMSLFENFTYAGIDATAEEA

B1: G2: anti-Tie1 antibody; HC SEQ ID NO:110, LC SEQ ID NO:112 (antibody)
heavy: EVQLLESGGGLVQPGGSLRLSCAASGFTFSSYKMGWVRQAPGRGLEWVSSIYPSGGWTHYADSVKGRFTISRDNSKNTLYLQMNSLRAEDTAVYYCARVLLHYFDYWGQGTLVTVSSASTKGPSVFPLAPSSKSTSGAQRPWAAWSRTTSRDTGDGV
light: QSVLTQPASVSGSPGQSITISCTGTSSDVGGYKYVSWYQQHPGKAPKLIISDVNNRPSGVSDRFSGSKSGNTASLTISGLQAEDDGDYYCSSYASSSYTSSTTWVFGG
modifications: Synthetically generated peptide
effect on the survival effect of E3 IgG in Tie1-EpoR Ba/F3 assay [1]: promoted the survival

B2: A10: anti-Tie1 antibody; VH SEQ ID NO:60, VL SEQ ID NO:62 (antibody, V domains shown)
VH: EVQLLESGGGLVQPGGSLRLSCAASGFTFSNYVMVWVRQAPGKGLEWVSGIYPSGGHTKYADSVKGRFTISRDNSKNTLYLQMNSLRAEDTAVYYCARVNYYDSSGYGPIAPGLDYWGQGTLV
VL: HSAQDIQMTQSPGTLSLSPGERATLFCRASQRVTSNSLAWYQQRPGQAPRLLIYDASTRATGIPDRFSGSGSGRDFTLTISRLEPEDFAVYYCQRYGSSVLYSFGQGTKLEIT
modifications: Synthetically generated peptide
effect on the survival effect of E3 IgG in Tie1-EpoR Ba/F3 assay [1]: inhibited the viability effect of E3 IgG to some extent

staining of lung carcinoma ([2]; 10 μg/ml): stained structures other than vessels
staining of normal lung (large veins) ([2]; 10 μg/ml): did not stain the same veins
staining of normal skin ([2]; 10 μg/ml): stained blood vessels very faintly
B3: B2: anti-Tie1 antibody; VH SEQ ID NO:64, VL SEQ ID NO:66 (antibody, V domains shown)
VH: EVQLLESGGGLVQPGGSLRLSCAASGFTFSIYGMAWVRQAPGKGLEWVSVISPSGGQTFYADSVKGRFTISRDNSKNTLYLQMNSLRAEDTAVYYCARVYYYGMDVWGQGTTVTVSSASTKGPSVFP
VL: HSAQDIQMTQSPATLSLSPGERATLSCRASQSVSSYLAWYQQKPGQAPRLLIYDASNRATGIPARFSGSGSETDFTLTISSLEPEDFAVYYCQQRSKWPRTFGQGTKLEIK
modifications: Synthetically generated peptide
staining of breast carcinoma ([2]; 10 μg/ml): stained also other structures in addition to vessels
staining of kidney ([2]; 10 μg/ml): only very faint staining of either tubules or vessels
staining of melanoma tissue ([2]; 10 μg/ml): also stained other surrounding structures
staining of vessels in normal tissues (tissue specificity) ([2]; biotinylated IgG 10 μg/ml): stained vessels very faintly in other normal tissues than in the breast
effect on the survival effect of E3 IgG in Tie1-EpoR Ba/F3 assay [1]: completely blocked the viability; also recorded: blocked completely the survival effect of E3 IgG; also recorded: counteract the agonistic activity of E3

B4: P-B3: anti-Tie1 antibody; VH SEQ ID NO:24, VL SEQ ID NO:26 (antibody, V domains shown)
VH: EVQLLESGGGLVQPGGSLRLSCAASGFTFSRYGMHWVRQAPGKGLEWVSVISPSGGMTYYADSVKGRFTISRDNTKNTLYLQMNSLRAEDTAVYYCARVGATGPFDIWGQGTMVTVSSASTKGPSVFPLAP
VL: QDIQMTQSPATLSLSPGERATLSCRASQSVSTYLAWYQQKPGQAPRLLIYDASNRATGIPGRFSGSGSGTDFTLTISSLEAEDFAVYYCQQRSSWPITFGQG
modifications: Synthetically generated peptide
effect on the survival effect of E3 IgG in Tie1-EpoR Ba/F3 assay [1]: inhibited the viability effect of E3 IgG to some extent

B5: P-C6: anti-Tie1 antibody; VH SEQ ID NO:28, VL SEQ ID NO:30 (antibody, V domains shown)
VH: EVQLLESGGGLVQPGGSLRLSCAASGFTFSHYGMTWVRQAPGKGLEWVSVISPSGGQTGYADSVKGRFTISRDNSKNTLYLQMNSLRAEDTAVYYCAGGGYAAFDYWGQGTLVTVSSASTKGPSVFPLAPSSKSTSGGTAALG
VL: B4 VL with T32S, G61A, A81P, S94N, I97L, Q101G
modifications: Synthetically generated peptide
effect on the survival effect of E3 IgG in Tie1-EpoR Ba/F3 assay [1]: inhibited the viability effect of E3 IgG to some extent

B6: A2: anti-Tie1 antibody; VH SEQ ID NO:56, VL SEQ ID NO:58; not the anti-streptavidin A2-SV (antibody, V domains shown)
VH: EVQLLESGGGLVQPGGSLRLSCAASGFTFSRYTMMWVRQAPGKGLEWVSGIYPSGGVTLYADSVKGRFTISRDNSKNTLYLQMNSLRAEDTAVYYCARVNYYDSSGYGPIAPGLDYWGQGTLVTVSSASTKGPSVFP
VL: HSAQDIQMTQSPGTLSLSPGERATLSCRASRSVIISYVAWYQQKPGQAPRLLIYGASTRATGIPDRFSGSGSGTDFTLTISRLEPEDFAVYFCQLYGRSPRIIFGQGTRLEIK
modifications: Synthetically generated peptide
notes: anti-Tie1 antibody; not the anti-streptavidin A2-SV
effect on the survival effect of E3 IgG in Tie1-EpoR Ba/F3 assay [1]: inhibited the viability effect of E3 IgG to some extent

B7: C7: anti-Tie1 antibody; VH SEQ ID NO:76, VL SEQ ID NO:78 (antibody, V domains shown)
VH: EVQLLESGGGLVQPGGSLRLSCAASGFTFSRYVMYWVRQAPGKGLEWVSVIYPSGGATYYADSVKGRFTISRDNSKNTLYLQMNSLRAEDTAVYYCARRGSSGAFDYWGQGTLVTVSSASTKGPSVFP
VL: HSAQSVLTQPASVSGSPGQSITISCTGTSSDIGRYNYASWYQQRPGKSPKLLIYEVSDRPSGVSNRFSGSKSGNTASLIISGLQAEDEADYYCSSYSSTNSLQVVFGGGTKLSVLGQPKAAPSVTLFPPSSEELQANKATLVCL
modifications: Synthetically generated peptide
effect on the survival effect of E3 IgG in Tie1-EpoR Ba/F3 assay [1]: promoted the survival
